First the molecules themselves.
B1: M18 (scFv)
chain 1: QVQLVQSGGGLVQPGGSLRLSCAASGFTFSSYWMHWVRQAPGKGLVWVSRINSDGSSTSYADSVKGRFTISRDNAKNTLYLQMNSLRAEDTAVYYCVRTGWVGSYYYYMDVWGKGTTVTVSS
chain 2: EIVLTQSPGTLSLSPGERATLSCRASQSVSSNYLAWYQQKPGQPPRLLIYDVSTRATGIPARFSGGGSGTDFTLTISSLEPEDFAVYYCQQRSNWPPWTFGQGTKVEIK
B2: anti-mesothelin scFv-M13 (scFv)
chain: AIRMTQSPSSLSASVGDRVTITCRASQGISNSLAWYQQKPGKAPKLLLYAASRLESGVPSRFSGSGSGTDYTLTISSLQPEDFATYYCQQYYSTPFTFGPGTKLEIKGGGGSGGGGSGGGGSQVQLVQSGAEVKKPGSSVKVSCKTSADTFSANTINWVRQAPGHGLEWMGRIIPSLNIRDYAQEFQGRVTFTADESTNTVYMQLTSLRSEDTAVYYCARDPGSTWSPNQFFPHWGQGTLVTVSS
B3: anti-mesothelin scFv-M8 (scFv)
chain: DIQLTQSPSSLSASVGDRVTITCRASQSISSSLNWYQQKPGKAPKLLIYAASSLQSGVPSRFSGSGSGTDFTLTISSLQPEDFATYSCQQSYSTPLTFGGGTKVEIKGGGGSGGGGSGGGGSQVHLVESGGGVVQPGRSLRVSCAASGFTFSGYAMYWVRQAPGKGLEYVSAITTNGGSTNYADSVKGRFTISRDNSKNTLYLQMSSLRAGDTAVYYCARGAPGYRGYYMDVWGKGTTVTVSS
B4: anti-mesothelin scFv-M6 (scFv)
chain: EIVMTQSPATLSLSPGERATLSCRASQSIGNSLAWYQQKPGQAPRLLIYDVSNRATGIPARFSGSGSGTDFTLTISSLEPEDFAVYYCQHRYSWPLTFGGGTKVEIKGGGGSGGGGSGGGGSQVQLVQSGGGLVKPGGSLRLSCAASGFTFSDYYMSWIRQAPGKGLEWVSYISSSGSTIYYADSVKGRFTISRDNAKNSLYLQMNSLRAEDTAVYYCARDGYRTHNWFDPWGQGTLVTVSS
B5: anti-mesothelin scFv-M15 (scFv)
chain: DIQLTQSPSSLSASIGDRVTITCRASQGVNSALAWYQQKPGKPPNLLIYDASSLESGVPSRFSGSGSGRDFTLTISSLQPEDFATYYCQQFSSYPLTFGGGTKVDIKGGGGSGGGGSGGGGSQVQLVQSGAEVKKPGASVKVSCKASGYTFTSYYMHWVRQAPGQGLEWMGIINPSGGSTSYAQKFQGRVTMTRDTSTSTVYMELSSLRSEDTAVYYCARAQRGGSVYFDYWGQGTLVTVSS
B6: anti-mesothelin scFv-M7 (scFv)
chain: DIRLTQSPSSLSASLGDRVTITCRASQAISSALAWYQQKPGKAPRLLIYDASTLESGVPSRFSGSGSGTDFTLTISSLQPEDFATYYCQQADSFPLTFGGGTKLEIKGGGGSGGGGSGGGGSQVQLVQSGAEVKKSGESLKISCKGSGYGFGAYWIAWVRQMPGKGLEWMGIIYPGDSRVIYSPYFQGQVTISADKSISTAYLQWSSLKASDTAMYYCARFGGPKFATNWFDIWGQGTTVTVSS
B7: anti-mesothelin scFv-M31 (scFv)
chain: QSALTQPPSASGSPGQSVTISCTGTSSDIGGYNSVSWYQQHPGKAPKLIIYGVSRRPSGVPDRFSGSKSANTASLTVSGLQAVDEADYYCSSYGGSNNLLFGGGTKLTVLGGGGSGGGGSGGGGSEVHLVESGGGLAQPGGSLRLSCAASGFSFSSSWMAWVRQAPGKGLEWVANIKQDGSSQYYVDSVKGRFTISRDNAKNSLSLQMNSLRAEDTAVYYCARDIWYSIDYWGQGTLVTVSS
B8: anti-mesothelin scFv-M22 (scFv)
chain: QSALTQPASVSGSPGQSITLSCTGTRRDIGGYEYVSWYQQHPGKAPKLLIFSVNNRPSGVSHRFSGSKSGNTASLTISGLQAEDEAAYFCSSYSSRDTLVLFGGGTKLTVLGGGGSGGGGSGGGGSQVQLVQSGAEVKKPGSSVKVSCKASGGTFSSYAISWVRQAPGQGLEWMGGIIPIFGTANYAQKFQGRVTITADESTSTAYMELSSLRSEDTAVYYCASGRSGSYGLYWGQGTLVTVSS
B9: anti-mesothelin scFv-M27 (scFv)
chain: EIVLTQSPGTLSLSPGERATLSCRASQPIVASHLAWYQHKPGQAPRLLIYGASTRAAGIPDRFSGSGSGTDFTLTISRLEPEDFAVYFCQQYGISPFTFGPGTKVDIKGGGGSGGGGSGGGGSQVQLVQSGAEVKKPGESLKISCQGSGYSFTDYWIGWVRQAPGQGLEWMGWITPNNGNTNYAPKFQGRVTLTTDTSTSTAYMELRSLTSDDTAVYFCARRGRNSSGYLYYYSMDVWGQGTTVTVSS
B10: anti-mesothelin scFv-M28 (scFv)
chain: QSALTQPPSASGSPGQSVTISCSGTSSDVGGYNFVSWYQHHPGKAPKLMIYEVSKRPSGVPDRFSGSKSGNTASLTVSGLQAEDEADYYCSSYAGRNNPYLFGTGTKLTVLGGGGSGGGGSGGGGSQLQLQESGAEVKKPGSSVKVSCKASGGTFSSYAISWVRQAPGQGLEWMGGIIPIFGTANYAQKFQGRVTITADESTSTAYMELSSLRSEDTAVYYCARDLGGYSYGHGLDYWGQGTLVTVSS
B11: anti-mesothelin scFv-M20 (scFv)
chain: AIQMTQSPSSLSASVGNRVTITCRASQGISSAVAWYQQKPGKPPKLLISYASSLESGVPSRFSGSGSGTDFSLTISSLQPEDFATYFCQQFNSYPLTFGGGTKVEIKGGGGSGGGGSGGGGSQVQLVQSGAEVRKPGESLKISCKGSGYSFRDSWIAWVRQMPGQGLEWMGIIFPGDSNPIYSPSFQGQVTISADTSISTTFLQWRSLKASDSAIYYCARHAAWGAGWFDPWGQGTLVTVSS
B12: anti-mesothelin scFv-M24 (scFv)
chain: QPVLTQPPSASGTPGQRVTISCSGSSSNIGSNYVYWYQQFPGTAPKLLIYMNNQRPSGVPDRFSGSKSGTSASLAISGLRSEDEADYYCAARDDSLSGYVTFGGGTKLTVLGGGGSGGGGSGGGGSEVHLVESGGGLVQPGGSLRLSCAASGFTFSSYAMSWVRQAPGKGLEWVSAISGSGGSTYYADSVKGRFTISRDNSKNTLYLQMNSLKTEDTAVYYCTRGVATFDYWGQGTLVTVSS
B13: anti-mesothelin scFv-M32 (scFv)
chain: DIRMTQSPSSLSASVGDRVTVTCQASEDINNSLNWYQQKPGKAPQLLIYDASDLETGVPSRFSGRGSGRDFTLTISSLQPEDFATYYCQQLNSYPLTFGGGTKLEIKGGGGSGGGGSGGGGSQVQLVQSGAEVKKPGASVKVSCKASGFTFIGYYLHWVRQAPGQGLEWMGIINPSGGRTSMAQKFQGRVSMTTDTSTGTVYLDLGRLGSDDTAVYYCARADNWNAGSMDVWGNGTTVTVSS
B14: anti-mesothelin scFv-M37 (scFv)
chain: DIVMTQTPSSLSASVGDRVTITCRASQGISNYLAWFQQKPGKAPKPLIYAASSLQSGVPSKFSGSGSGTDFTLTISNLQPEDFATYICQQYSSYPITFGQGTRLEIKGGGGSGGGGSGGGGSQLQLQESGPGLVKPSETLSLTCAVSGGSISPYYWTWIRQSPGKAMEWMGYIHYSGRTNYNPSLESRATFSVDTSKNQISLKLNSVTAADTAVYYCTKVGDPGLFDYWGPGTLVTVSS

The target in one assay is T1, mesothelin-Fc recombinant protein (human, UniProt Q13421 296-580, limits assumed).
T1 construct: also called mesothelin-Fc protein; human Mesothelin-Fc; not shown: Fc part
T1 sequence (Q13421 other isoform, or with tags, fused parts or gaps limits assumed): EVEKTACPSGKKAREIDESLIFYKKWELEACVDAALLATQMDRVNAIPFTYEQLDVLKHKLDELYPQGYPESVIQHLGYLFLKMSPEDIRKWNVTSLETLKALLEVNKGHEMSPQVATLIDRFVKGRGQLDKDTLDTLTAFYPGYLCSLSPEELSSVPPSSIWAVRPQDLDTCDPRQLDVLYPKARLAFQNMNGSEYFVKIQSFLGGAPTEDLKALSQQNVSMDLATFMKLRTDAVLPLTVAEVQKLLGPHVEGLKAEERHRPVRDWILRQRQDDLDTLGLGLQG
Description: FACS of T cells expressing the scFv CAR, stained with Mesothelin-Fc + PE-anti-IgG-Fc; Mock T cells of the same block: 0.63.
On to B1, for which the “number in the Mesothelin-Fc positive gate (percent of cells, unit not given)” value (shortened to “number … (percent of cells, unit not given)”) was 9.53.

For the molecule B2, the “number … (percent of cells, unit not given)” value was found to be 71.1.

As to B3, the “number … (percent of cells, unit not given)” value amounted to 80.8.

In the case of B4, the “number … (percent of cells, unit not given)” value came out at 83.4.

Take B5: the “number … (percent of cells, unit not given)” value was 48.8.

For B6, the “number … (percent of cells, unit not given)” value turned out to be 36.3.

In another assay the target is T1, mesothelin-Fc recombinant protein. Nature of the assay: FACS of T cells expressing the scFv CAR, stained with Mesothelin-Fc + PE-anti-IgG-Fc; Mock T cells of the same block: 0.97.
In the case of B7, the “number … (percent of cells, unit not given)” value was 67.9.

Take B8: the “number … (percent of cells, unit not given)” value was determined as 80.

In the case of B9, the “number … (percent of cells, unit not given)” value turned out to be 76.3.

Regarding B10, the “number … (percent of cells, unit not given)” value is 82.8.

On to B11, for which the “number … (percent of cells, unit not given)” value is 75.6.

Take B12: the “number … (percent of cells, unit not given)” value is 93.6.

B13: the “number … (percent of cells, unit not given)” value is 84.1.

On to B14, for which the “number … (percent of cells, unit not given)” value amounted to 74.2.

(Values after patent US11897966 (UTC THERAPEUTICS SHANGHAI, dated 2024).)
